Reference: patent US20220298254A1 (HUMMINGBIRD BIOSCIENCE HOLDINGS PTE, published 2022)
Where two headings read alike, the source gives them in different places.

Assays:
[1] = target: T1, human CD47 (recombinant protein, construct not stated) (human, UniProt Q08722 19-141); experiment: BLI (BLItz), IgG1 captured on anti-human Fc tips, human CD47 as analyte, 1:1 global fit
T1 construct: also called hCD47; human CD47 protein
Protocol: Bio-Layer Interferometry (BLI) experiments were performed using a single channel BLItz system (ForteBio, Menlo Park, Calif.) using Anti-human immunoglobulin G (IgG) Fc (AHC) coated biosensor tips (Pall ForteBio, Menlo Park, Calif.) for capturing human IgGs. Biosensors were first hydrated for at least 10 m in assay buffer (phosphate buffered saline) followed by buffer baseline for 30 s and loading of the human IgGs onto the biosensor tips at concentrations ranging from 25-50 nM for 120 s. The tips were then washed briefly for 30 s with the assay buffer to remove nonspecifically bound proteins or unbound IgGs for obtaining a second buffer baseline. […] All the BLITz runs were measured at room temperature at a stirring speed of 1000 rpm and AHC biosensors were regenerated using 10 mM of glycine (pH 2.7) after the assay. Binding affinity between the immobilized antibodies on the AHC sensors and human CD47 were determined by analyzing the binding kinetic curves using the software BLItz Pro. All the sensorgrams were reference subtracted and globally fitted into a 1:1 model which analysed the binding curves at different concentrations of antigens and generated kinetic constants (KD/Ka/Kd) for the globally fitted data. […]
(§1) The anti-CD47 antibody clones in IgG1 format were analyzed for binding affinity to human CD47.

[2] = target: T1, human CD47 (recombinant protein, …); experiment: BLI (BLItz), IgG captured on anti-human IgG Fc (AHC) tips, human CD47 as analyte, global 1:1 fit
Protocol: (§2) Bio-Layer Interferometry (BLI) experiments were performed using a single channel BLItz system (ForteBio, Menlo Park, Calif.) using Anti-human immunoglobulin G (IgG) Fc (AHC) coated biosensor tips (Pall ForteBio, Menlo Park, Calif.) for capturing human IgGs. Biosensors were first hydrated for at least 10 m in assay buffer (phosphate buffered saline) followed by buffer baseline for 30 s and loading of the human IgGs onto the biosensor tips at concentrations ranging from 25-50 nM for 120 s. The tips were then washed briefly for 30 s with the assay buffer to remove nonspecifically bound proteins or unbound IgGs for obtaining a second buffer baseline. The association phase of the IgGs with antigens (500 nM-0 nM) was set up at 120 s which was followed by a dissociation phase (assay buffer alone) for 120 s. All the BLITz runs were measured at room temperature at a stirring speed of 1000 rpm and AHC biosensors were regenerated using 10 mM of glycine (pH 2.7) after the assay. Binding affinity between the immobilized antibodies on the AHC sensors and human CD47 were determined by analyzing the binding kinetic curves using the software BLItz Pro. All the sensorgrams were reference subtracted and globally fitted into a 1:1 model which analysed the binding curves at different concentrations of antigens and generated kinetic constants (KD/Ka/Kd) for the globally fitted data. All the binding curves were subjected to step correction which corrects the misalignment between association and dissociation steps and only the curves with R² values greater than 0.9 were used for analysis.
as §1

[3] = target: human VISTA protein (human, UniProt Q9H7M9 33-194, limits assumed); experiment: ELISA on coated human VISTA protein
Protocol: (§3) 96-well plates (Nunc, Denmark) were coated with 1 μg/ml of human CD47 or VISTA protein in PBS, for 1 h at room temperature. Plates were blocked for 1 h at room temperature with 1% BSA in Tris buffer saline containing 0.05% Tween 20 (TBS-T). The test antigen-binding molecules were added at concentrations ranging from to 0.002 μg/ml to 200 μg/ml, and the plates were incubated at room temperature for 1 h. Plates were then washed three times with TBS-T, and were then incubated with a HRP-conjugated secondary antibody for 1 h at room temperature. After washing, plates were developed with colorimetric detection substrate 3,3′,5,5′-tetramethylbenzidine (Turbo-TMB; Pierce, USA). The reaction was stopped after 3.5 min with 2M […], and OD was measured at 450 nm.
In a separate ELISA, the antigen-binding molecules were evaluated for binding to human VISTA.

[4] = target: T1, human CD47 (recombinant protein, …); experiment: ELISA on coated human CD47
Protocol: as §3

[5] = target: T2, untagged human CD47 protein (Sinobiological Inc) (human, UniProt Q08722 19-141); experiment: competition ELISA: inhibition of His-tagged SIRPα binding to coated human CD47
T2 construct: Bought

[6] = target: T1, human CD47 (recombinant protein, …); experiment: BLI (BLItz), IgG1 captured on anti-human Fc tips, human CD47 as analyte, 1:1 global fit; remark: listed apart in the source
Protocol: as §2, with “Biosensors” for “Bio-Layer Interferometry (BLI) experiments were performed using a single channel BLItz system (ForteBio, Menlo Park, Calif.) using Anti-human immunoglobulin G (IgG) Fc (AHC) coated biosensor tips (Pall ForteBio, Menlo Park, Calif.) for capturing human IgGs. Biosensors”, “60” for “30”, “25” for “concentrations ranging from 25-50”, “(250 nM to 62.5” for “(500 nM-0”

Row | Binder | Kd [1] | koff [2] | kon [2] | binding result [3] | EC50 [4] | Fold increase in EC50 relative to 1-1-A1_BM [4] | Fold increase in IC50 relative to 1-1-A1_BM [5] | IC50 [5] | Kd [6] | koff [6] | kon [6]
1 | anti-CD47 clone 1-1-A1 IgG1 (antibody, V domains shown) VH: EVQLQQSGPDLVKPGASVKMSCKASGYTFTNYVIHWVKQKPGQGLEWIGYINPYNDGTKSNEKFKGKATLTSDKSSTSAYMELSSLTSEDSAVYYCASGGYYTMDYWGQGTSVTVSS VL: DVVMTQTPLSLPVSLGDQASISCRSSQHLEYSNGYSYLHWYLQKPGQSPQLLIYKISNRFSGVPDRFSGSGSGTDFTLKISRVEAEDLGVYFCSQSTHVPYTFGGGTKLEIKR | 9 nM | 0.00371 s⁻¹ | 451000 M⁻¹ s⁻¹ |  |  |  |  |  |  |  | 
2 | 11A1H4-IgG1 (antibody, V domains shown, Humanised version of clone 1-1-A1, IgG1/kappa; also called 1A11H4) VH: QVQLVQSGAEVKKPGASVKVSCKASGYTFTNYVIHWVRQAPGQGLEWMGYINPYNDGTKYNQKFKGRVTLTSDTSTTTAYMELSRLRSDDTAVYYCASGGYYTMDYWGQGTLVASTK VL: DVVMTQSPLSLPVTLGQPASISCRSSQHLEYSNGYSYLHWYQQRPGQSPRLLIYKISNRFSGVPDRFSGSGSGTDFTLKISRVEAEDVGVYYCSQSTHVPYTFGGGTKVEIKR |  |  |  | no binding (tested: 0.002 µg/ml to 200 µg/ml) | 0.00018 µg/mL | 0.1 fold | 0.32 fold | 0.15 µg/mL |  |  | 
3 | 11A1H3-IgG1 (antibody, V domains shown, Humanised version of clone 1-1-A1, IgG1/kappa; also called 1A11H3) VH: QVQLVQSGAEVKKPGASVKVSCKASGYTFTNYVMHWVRQAPGQGLEWMGYINPYNDGTKSNEKFQGRVTLTSDTSTSTAYMELSSLRSEDTAVYYCASGGYYTMDYWGQGTLVASTK VL: DVVMTQSPLSLPVTLGQPASISCRSSQHLEYSNGYSYLHWYQQRPGQSPRLLIYKISNRFSGVPDRFSGSGSGTDFTLKISRVEAEDVGVYYCSQSTHVPYTFGGGTKVEIKR |  |  |  | no binding (tested: 0.002 µg/ml to 200 µg/ml) | 0.00022 µg/mL | 0.12 fold |  |  | 3.39 nM | 0.000904 s⁻¹ | 266000 M⁻¹ s⁻¹
4 | 11A1H6-IgG1 (antibody, V domains shown, Humanised version of clone 1-1-A1, IgG1/kappa; also called 1A11H6) VH: QVQLVQSGAEVKKPGASVKVSCKASGYTFTNYVIHWVRQAPGQGLEWMGYINPYNDGTKYNQKFKGRVTLTSDTSTTTAYMELSRLRSDDTAVYYCASGGYYTMDYWGQGTLVASTK VL: DVVMTQSPLSLPVTLGQPASISCRSSQHLEYSQGYSYLHWYQQRPGQSPRLLIYKVSNRDSGVPDRFSGSGSGTDFTLKISRVEAEDVGVYYCSQSTHVPYTFGGGTKVEIKR |  |  |  | no binding (tested: 0.002 µg/ml to 200 µg/ml) | 13.4 µg/mL | 7440 fold | > 200 fold | > 100 µg/mL | 134 nM | 0.0144 s⁻¹ | 108000 M⁻¹ s⁻¹
5 | 11A1H10-IgG1 (antibody, V domains shown, Humanised version of clone 1-1-A1, IgG1/kappa; also called 1A11H10) VH: QVQLVQSGAEVKKPGASVKVSCKASGYTFTGYVIHWVRQAPGQGLEWMGYINPYNGGTNYAQKFKGRVTLTSDTSTTTAYMELSRLRSEDTAVYYCASGGYYTMDYWGQGTLVTVSS VL: DVVMTQSPLSLPVTLGQPASISCRSSQHLEYSNGYSYLHWYQQRPGQSPRLLIYKVSNRDSGVPDRFSGSGSGTDFTLKISRVEAEDVGVYYCSQSTHVPYTFGGGTKVEIKR |  |  |  | no binding (tested: 0.002 µg/ml to 200 µg/ml) | 38.1 µg/mL | 21200 fold | > 200 fold | > 100 µg/mL | 111 nM | 0.00898 s⁻¹ | 80900 M⁻¹ s⁻¹
6 | 11A1H5-IgG1 (antibody, V domains shown, Humanised version of clone 1-1-A1, IgG1/kappa; also called 1A11H5) VH: QVQLVQSGAEVKKPGASVKVSCKASGYTFTGYVIHWVRQAPGQGLEWMGYINPYNGGTNYAQKFKGRVTLTSDTSTTTAYMELSRLRSEDTAVYYCASGGYYTMDYWGQGTLVTVSS VL: DVVMTQSPLSLPVTLGQPASISCRSSQHLEYSNGYSYLHWYQQRPGQSPRLLIYKISNRFSGVPDRFSGSGSGTDFTLKISRVEAEDVGVYYCSQSTHVPYTFGGGTKVEIKR |  |  |  | no binding (tested: 0.002 µg/ml to 200 µg/ml) | 0.00015 µg/mL | 0.08 fold | 0.42 fold | 0.201 µg/mL | 9.28 nM | 0.0012 s⁻¹ | 129000 M⁻¹ s⁻¹
7 | 11A1H7-IgG1 (antibody, V domains shown, Humanised version of clone 1-1-A1, IgG1/kappa; also called 1A11H7) VH: QVQLVQSGAEVKKPGASVKVSCKASGYTFTGYVIHWVRQAPGQGLEWMGYINPYNGGTNYAQKFKGRVTLTSDTSTTTAYMELSRLRSEDTAVYYCASGGYYTMDYWGQGTLVTVSS VL: DVVMTQSPLSLPVTLGQPASISCRSSQHLEYSQGYSYLHWYQQRPGQSPRLLIYKVSNRDSGVPDRFSGSGSGTDFTLKISRVEAEDVGVYYCSQSTHVPYTFGGGTKVEIKR |  |  |  | no binding (tested: 0.002 µg/ml to 200 µg/ml) | 36.8 µg/mL | 20400 fold | > 200 fold | > 100 µg/mL |  |  | 
8 | 11A1H9-IgG1 (antibody, V domains shown, Humanised version of clone 1-1-A1, IgG1/kappa; also called 1A11H9) VH: QVQLVQSGAEVKKPGASVKVSCKASGYTFTGYVIHWVRQAPGQGLEWMGYINPYNGGTNYAQKFKGRVTLTSDTSTTTAYMELSRLRSEDTAVYYCASGGYYTMDYWGQGTLVTVSS VL: DVVMTQSPLSLPVTLGQPASISCRSSQHLEYSTGYSYLHWYQQRPGQSPRLLIYKVSNRDSGVPDRFSGSGSGTDFTLKISRVEAEDVGVYYCSQSTHVPYTFGGGTKVEIKR |  |  |  | no binding (tested: 0.002 µg/ml to 200 µg/ml) | 23.5 µg/mL | 13100 fold | > 200 fold | > 100 µg/mL | 23.3 nM | 0.00635 s⁻¹ | 273000 M⁻¹ s⁻¹
9 | 11A1H11-IgG1 (antibody, V domains shown, Humanised version of clone 1-1-A1, IgG1/kappa; also called 1A11H11) VH: QVQLVQSGAEVKKPGASVKVSCKASGYTFTGYVIHWVRQAPGQGLEWMGYINPYNGGTNYAQKFKGRVTLTSDTSTTTAYMELSRLRSEDTAVYYCASGGYYTMDYWGQGTLVTVSS VL: DVVMTQSPLSLPVTLGQPASISCRSSQHLEYSNGYSYLHWYQQRPGQSPRLLIYKISNRFSGVPDRFSGSGSGTDFTLKISRVEAEDVGVYYCSQGTHVPYTFGGGTKVEIKR |  |  |  | no binding (tested: 0.002 µg/ml to 200 µg/ml) | 0.0021 µg/mL | 1.17 fold | 1.02 fold | 0.483 µg/mL |  |  | 
